Experimental data published in patent publication US20040233833A1, “Methods for identifying compounds with thrapeutic potential for treatment of central Neurodegenerative diseases resulting from abnormal protein or peptide accumulation” (priority 2001, published 2004).
“And” between values parts separate entries of the source, which are not always exact repeats. Equal entries are not always repeated.

Experiments:
[1] = molecular target: proteasome (chymotrypsin-like activity) (Homo sapiens, UniProt P28072+P28074+Q99436); assay: Activity screen of E. coli lysates expressing mutagenized REGγ for stimulation of LLVY-MCA cleavage; format: biochemical; conditions: 170 ng proteasome, 100 μM LLVY-MCA, 10-minute incubation; 1400 colonies
Protocol: Error-prone PCR was used to introduce random mutation into the REGγ DNA. See Zhang et al., (1998)Idnetification of an Activation Region in the Proteasome Activator REGα. Proc. Natl. Acad. Sci. 95:2807-2811. The PCR products were inserted into pET26(b) through NdeI/BamHI sites. The resulting plasmid library was transformed into BL21(DE3) cells. About 60% of the isolated colonies contained a single-site mutation.
Transformants were picked and grown at 37° C. in LB containing 25 μg/ml kanamycin. Protein expression was induced with 0.8 mM IPTG for 2 hours at 30° C. Cells were collected by centrifugation and lysed with 10 mM Tris-HCL, pH 7.5, 0.5% Triton X-100, and 0.3 mg/ml polymixin B sulfate. Aliquots were incubated with 170 ng proteasome and 100 μM LLVY (SEQ ID NO:1)-MCA. After a 10-minute incubation, reactions were terminated with 200 μl of ethanol and fluorescence was measured. See Li et al (2000), The Proteasome Activator 11S REG or PA28: Chimeras Implicate Carboxyl-Terminal Sequences in Oligomerization and Proteasome Binding But Not in the Activation of Specific Proteasome Catalytic Subunits, J. Mol. Biol. 299:641-54.

proteasome [2] = molecular target: T1, proteasome (Homo sapiens, UniProt P28072+P28074+Q99436); assay: REGα(N146Y)/REGβ(N135Y) competition assay for relative proteasome affinity; format: binding; conditions: in terms of REGα(N146Y)/REGβ(N135Y) competition; wild-type REGγ 100
Excerpt: As a measure of the relative affinities of REGγ and the REGγLys188 mutants for the proteasome, a competition assay was used. See Li et al. (2000), The Proteasome Activator 11S REG or PA28: Chimeras Implicate Carboxyl-Terminal Sequences in Oligomerization and Proteasome Binding But Not in the Activation of Specific Proteasome Catalytic Subunits. J. Mol. Biol. 299:641-54. All REGγLys188 mutants were relatively resistant to REGα(N146Y)/REGβ(N135Y) competition with apparent proteasome affinities varying from 40% to 90% that of wild-type REGγ.

[3] = molecular target: T2, Human red blood cell proteasomes (Homo sapiens, UniProt P28072+P28074+Q99436); assay: Activation of fluorogenic peptide hydrolysis by the proteasome in the presence of REG variants; format: biochemical; conditions: for Stimulation of cleavage (x-fold) LLE: substrate LLE-βNA (PGPH site); for Stimulation of cleavage (x-fold) LLVY: substrate LLVY-MCA (chymotrypsin-like site); for Stimulation of cleavage (x-fold) LRR: substrate LRR-MCA (trypsin-like site)
T2 construct: Human red blood cell proteasomes; from tissue; host or cells: human red blood cells
Protocol: Human red blood cell proteasomes (170 ng) were mixed with increasing amounts of purified REG variants. The reactions were started by adding 50 μl of 200 μMscu-LLVY-MCA, Boc-LRR-MCA, or Boc-LLE-βNA in 10 mM Tris, pH 7.5. After a 10 min incubation, the reaction was quenched with 200μl of cold 100% ethanol, and the released MCA or βNA ws measured fluometrically. Each data point represents the mean of three measurements from a single experiment. […] REGα (▪), REGγ(□), REGγ(K188E) or REGγ(K188D) (●), REGγ(K188H) (∘), REGγ(K188Q) or REGγ(K188N) (Δ), REGγ(K188A) (♦). The data for REGγ(K188E) and REGγ(K188D) and for REGγ(K188Q) and REGγ(K188N) were combined since their activities were indistinguishable.
Because each positive variant identified in the previous example included a mutation at Lys188, site-directed mutagenesis was used to generate a series of amino acid substitutions at this residue. Twelve mutants were constructed in which Lys188 of REGγ was changed to Ala, Arg, Asn, Asp, Cys, Gln, Glu, His, Ile, Phe, Pro, or Ser. Wild-type REGγ and the Lys 188 variants were expressed in E. coli, purified, and the activation specificity of each protein was measured using the diagnostic peptides LLVY (SEQ ID NO:1)-MCA, LRR-MCA, and LLE-βNA. Except for the K188R variant, all Lys 188 mutants stimulated the hydrolysis of LRR-MCA by the proteasome to the same extent or slightly better than wild-type REGγ. Substitution of negatively-charged Glu or Asp for the positively-charged Lys188 produced mutants with activation properties almost identical to REGα.
To determine the degree to which the activation specificity of REGγ(K188E/D) variants matches that of REGα, proteasomal cleavage of a series of fluorogenic peptides was measured in the presence of each activator.

proteasome [4] = molecular target: T1, proteasome; assay: Proteasomal hydrolysis of natural peptides P21 and BBC1 (HPLC); format: biochemical; conditions: 21-residue peptide P21; result in words
Protocol: Proteasomal hydrolysis of a 21 -residue peptide (P21) and a 49-residue peptide (BBC1) were prepared as described by Zhang et al. (1998), Proteasome Activation by REG Molecules Lacking Homolog-specific Inserts, J. Biol. Chem. 273:9501-09. Digestion products were applied to a C18 HPLC column and separated with a gradient of 0-45% acetonitrile containing 0.1% trifluoroacetic acid. To identify the products derived from P21, fractions were collected manually, concentrated, and subjected to mass spectrometry.

[5] = Heptamer stability on rechromatography (Superdex 200 size exclusion column); format: physicochemical; conditions: for Percent heptamer: after second gel filtration
Excerpt: To examine the effect of Lys188 substitution on REGγ heptamer stability, the wildtype and Lys 188 variant heptamers were rechromatographed on the Superdex 200 (26/60) size exclusion column used for purification. […] Replacement of Lys 188 by Pro or Phe severely affected the stability of REGγ heptamer.

[6] = molecular target: T2, Human red blood cell proteasomes; assay: Activation of fluorogenic peptide hydrolysis by the proteasome in the presence of REG variants; format: biochemical; conditions: for Stimulation of cleavage (x-fold) AAF-MCA: substrate AAF-MCA; for Stimulation of cleavage (x-fold) DEVD-MCA: substrate DEVD(SEQ ID NO: 8)-MCA; for Stimulation of cleavage (x-fold) FSR-MCA: substrate FSR-MCA; for Stimulation of cleavage (x-fold) IEGR-MCA: substrate IEGR(SEQ ID NO: 5)-MCA; for Stimulation of cleavage (x-fold) IETD-MCA: substrate IETD(SEQ ID NO: 6)-MCA; for Stimulation of cleavage (x-fold) LGHD-MCA: substrate LGHD(SEQ ID NO: 7)-MCA; for Stimulation of cleavage (x-fold) LY-MCA: substrate LY-MCA; for Stimulation of cleavage (x-fold) VLK-MCA: substrate VLK-MCA; for Stimulation of cleavage (x-fold) YVAD-MCA: substrate YVAD(SEQ ID NO: 9)-MCA
[7] = molecular target: proteasome β subunits (T, CT/PGPH) (Homo sapiens, UniProt P28072+P28074+Q99436); assay: Affinity labeling of proteasome β subunits with 125I-YL3-VS in the presence of REGs; format: biochemical; conditions: mean±S.D.
Excerpt: To obtain estimates of substrate access to the proteasome's central chamber in the presence of REGγ and REGγ(K188E), the active site-directed probe, ^125I-YL3-VS, which covalently modifies all three active β-subunits in an activity dependent manner, was used. […] The phosphoimages show increased labeling of CT/PGPH and T subunits in the presence of REGγ and REGγ(K188E). The data further reveal that REGγ increased the rate of T-subunit labeling 4.7±2.6 (mean±S.D.) fold and the rate of CT/PGPH labeling 4.4±1.7 (mean±S.D.) fold over that seen with proteasome alone. Stimulation by the mutant REGγ(K188E) was greater, being 10.8±4.9 (mean±S.D.) fold for the T-subunit and 11.9±4.8 (mean±S.D.) fold for the CT/PGPH subunit. […] The finding that REGγ increased labeling of the CT and PGPH subunits was unexpected as the wild type activator suppresses hydrolysis of the CT substrate sLLVY (SEQ ID NO:1)-MCA.

proteasomes [8] = molecular target: T3, proteasomes (Homo sapiens, UniProt P28072+P28074+Q99436); assay: Proteasomal degradation of fluorescein-labeled polyQ peptides (molecular exclusion chromatography); format: biochemical
Protocol: The following peptides were synthesized using routine peptide synthesis:
Each peptide was incubated for 5 hr with proteasomes alone, proteasomes+REGγ, proteasome+REGγ(K188E) or proteasomes+REGα/β. Degradation was assayed by molecular exclusion chromatography using fluorescein as a signal (see FIG. 2). The degradation products were identified by HPLC-MS (FIG. 3). […] By contrast, in the presence of REGγ(K188E) the various polyQ peptides were degraded 5 to 10-fold faster.

proteasomes [9] = molecular target: T3, proteasomes; assay: Proteasomal degradation of the fluorescein-tagged C31 peptide of APP; format: biochemical; conditions: result in words
Protocol: A 31-residue C-terminal peptide (C31) of APP, the transmembrane protein that gives rise to amyloid plaque forming Aβ peptides characteristic of Alzheimer's disease, was synthesized using routine peptide synthesis. A fluorescein tag was added to the peptide. C31 peptide is cytotoxic. See Lu et al. (2000), a Second Cytotoxic Proteolytic Peptide Derived from Amyloid Beta-Protein Precursor, Nat. Med. 6:397-404.
The C31 was incubated with proteasomes alone, proteasomes+REGγ, proteasome+REGγ(K188E) or proteasomes+REGα/β, and degradation was assayed as described in Example 8.

[10] = proteasome + activator, 5 hr incubation

Row | Substance | Relative affinity for proteasome (proteasome [2]) | Stimulation of cleavage (x-fold) LLE [3] [x-fold] | Stimulation of cleavage (x-fold) LLVY [3] [x-fold] | Stimulation of cleavage (x-fold) LRR [3] | Hydrolysis of P21 by the proteasome (proteasome [4]) | Stimulation of cleavage (x-fold) AAF-MCA [6] [x-fold] | Stimulation of cleavage (x-fold) DEVD-MCA [6] [x-fold] | Stimulation of cleavage (x-fold) FSR-MCA [6] [x-fold] | Stimulation of cleavage (x-fold) IEGR-MCA [6] [x-fold] | Stimulation of cleavage (x-fold) IETD-MCA [6] [x-fold] | Stimulation of cleavage (x-fold) LGHD-MCA [6] [x-fold] | Stimulation of cleavage (x-fold) LY-MCA [6] [x-fold] | Stimulation of cleavage (x-fold) VLK-MCA [6] [x-fold] | Stimulation of cleavage (x-fold) YVAD-MCA [6] [x-fold] | Colony screen for stimulation of LLVY-MCA cleavage [1] | Percent heptamer [5] | further results
1 | (F102I, K188N): REGγ double mutant F102I, K188N isolated from the error-prone PCR library |  |  |  |  |  |  |  |  |  |  |  |  |  |  | positive |  | 
2 | (L38V, K188N): REGγ double mutant L38V, K188N isolated from the error-prone PCR library |  |  |  |  |  |  |  |  |  |  |  |  |  |  | positive |  | 
3 | (L71P, K188E): REGγ double mutant L71P, K188E isolated from the error-prone PCR library |  |  |  |  |  |  |  |  |  |  |  |  |  |  | positive |  | 

Second part, led by results:

Row | Relative affinity for proteasome (proteasome [2]) | Stimulation of cleavage (x-fold) LLE [3] [x-fold] | Stimulation of cleavage (x-fold) LLVY [3] [x-fold] | Stimulation of cleavage (x-fold) LRR [3] | Hydrolysis of P21 by the proteasome (proteasome [4]) | Stimulation of cleavage (x-fold) AAF-MCA [6] [x-fold] | Stimulation of cleavage (x-fold) DEVD-MCA [6] [x-fold] | Stimulation of cleavage (x-fold) FSR-MCA [6] [x-fold] | Stimulation of cleavage (x-fold) IEGR-MCA [6] [x-fold] | Stimulation of cleavage (x-fold) IETD-MCA [6] [x-fold] | Stimulation of cleavage (x-fold) LGHD-MCA [6] [x-fold] | Stimulation of cleavage (x-fold) LY-MCA [6] [x-fold] | Stimulation of cleavage (x-fold) VLK-MCA [6] [x-fold] | Stimulation of cleavage (x-fold) YVAD-MCA [6] [x-fold] | Substance | Colony screen for stimulation of LLVY-MCA cleavage [1] | Percent heptamer [5] | further results
4 | 0 | 9 | 16 | 16 x-fold | markedly increased | 6 | 10 | 10 | 3 | 30 | 11 | 5 | 7 | 9 | REGα: 11S REG proteasome activator subunit closely related to REGβ and REGγ |  | ˜95% | 
5 | 100 | 0.6 | 0.4 | 12 x-fold and 11 x-fold | decreased | 1 | 2 | 7 | 1 | 1 | 1 | 2 | 5 | 0.9 | REGγ: wild-type 11S REG proteasome activator subunit, a homo-heptamer found principally in the nucleus |  | >95% | Increase in rate of CT/PGPH labeling over proteasome alone [7]: 4.4±1.7 fold; Increase in rate of T-subunit labeling over proteasome alone [7]: 4.7±2.6 fold; % Degraded, substrate F1-EPQPQ (proteasomes [8]; [10]): 5%; % Degraded, substrate F1-KSQPQ (proteasomes [8]; [10]): 15%; % Degraded, substrate F1-QHQ (proteasomes [8]; [10]): 5%; % Degraded, substrate F1-QPQ (proteasomes [8]; [10]): 5%; % Degraded, substrate F1-QQQ (proteasomes [8]; [10]): 15%; Degradation of polyQ peptides (proteasomes [8]; result in words): resistant to degradation; Percentage that remained heptamers on rechromatography ([5]; Superdex 200 second gel filtration): remained fully heptameric; Stimulation of cleavage of the LRR-MCA substrate ([6]; compared to the basal rate in the absence of REGγ (Example 10)): 10-20 fold; Proteasomal cleavage of sucLLVY-MCA ([6]; result in words): does not promote; Degradation of C31 peptide by proteasomes (proteasomes [9]): Only trace amounts
6 | 90 | 9 | 14 | 15 x-fold | markedly increased | 4 | 9 | 7 | 2 | 26 | 11 | 3 | 6 | 8 | γK188D: mutant REGγ in which Lys188 was changed to Asp |  | 50% | Activation properties compared with REGα ([3]; small fluorogenic peptides, result in words): virtually identical to REGα; Heptamers dissociated during the second gel filtration ([5]; Superdex 200): More than half
7 | 75 | 5 | 5 | 14 x-fold |  |  |  |  |  |  |  |  |  |  | γK188N: mutant REGγ in which Lys188 was changed to Asn | positive | 80% | 
